Assays:
Assay in all cases: stopped-flow tryptophan fluorescence, avidin 0.5 µM, biotin-protein 5.0 µM
[1] = target: Avidin-pCBMA109, P02701
[2] = target: Avidin-pCBMA121, P02701
[3] = target: Avidin-pCBMA152, P02701
[4] = target: Avidin-pCBMA170, P02701
[5] = target: Avidin-pCBMA182, P02701
[6] = target: Avidin-pCBMA232, P02701
[7] = target: Avidin-pCBMA56, P02701
[8] = target: Avidin-pCBMA58, P02701
[9] = target: Native avidin, P02701
Chain of Native avidin, P02701 (P02701 25-152): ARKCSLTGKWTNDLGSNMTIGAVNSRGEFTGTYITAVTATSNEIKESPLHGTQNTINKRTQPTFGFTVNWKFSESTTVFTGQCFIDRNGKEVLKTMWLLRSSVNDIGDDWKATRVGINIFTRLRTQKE

Chain of Avidin-pCBMA56, P02701 (P02701 25-152): as above
Chain of Avidin-pCBMA232, P02701 (P02701 25-152): as above
Chain of Avidin-pCBMA170, P02701 (P02701 25-152): as above
Chain of Avidin-pCBMA121, P02701 (P02701 25-152): as above
Chain of Avidin-pCBMA58, P02701 (P02701 25-152): as above
Chain of Avidin-pCBMA182, P02701 (P02701 25-152): as above
Chain of Avidin-pCBMA109, P02701 (P02701 25-152): as above
Chain of Avidin-pCBMA152, P02701 (P02701 25-152): as above

B1: Biotin-HRP (protein)
chain: QLTPTFYDNSCPNVSNIVRDTIVNELRSDPRIAASILRLHFHDCFVNGCDASILLDNTTSFRTEKDAFGNANSARGFPVIDRMKAAVESACPRTVSCADLLTIAAQQSVTLAGGPSWRVPLGRRDSLQAFLDLANANLPAPFFTLPQLKDSFRNVGLNRSSDLVALSGGHTFGKNQCRFIMDRLYNFSNTGLPDPTLNTTYLQTLRGLCPLNGNLSALVDFDLRTPTIFDNKYYVNLEEQKGLIQSDQELFSSPNATDTIPLVRSFANSTQTFFNAFVEAMDRMGNITPLTGTQGQIRLNCRVVNSNS
k (kobs, observed first-order rate constant) [1]: 0.026 s⁻¹ | k (kobs, observed first-order rate constant) [2]: 0.218 s⁻¹ | k (kobs, observed first-order rate constant) [3]: 0.025 s⁻¹ | k (kobs, observed first-order rate constant) [4]: 0.209 s⁻¹ | k (kobs, observed first-order rate constant) [5]: 0.025 s⁻¹ | k (kobs, observed first-order rate constant) [6]: 0.196 s⁻¹ | k (kobs, observed first-order rate constant) [7]: 0.261 s⁻¹ | k (kobs, observed first-order rate constant) [8]: 0.028 s⁻¹ | k (kobs, observed first-order rate constant) [9]: 5.03 s⁻¹

Reference: US20210388337
